From doi:10.1101/276808 (bioRxiv, 2018)
Where “and” joins values, the source holds several entries; their conditions need not be identical. Equal values may be shown once.

Target: the molecule itself
Assay: native gel or EMSA

B1: Lrp (natural protein, Escherichia coli, UniProt P0ACJ0 1-164, looked up)
chain: MVDSKKRPGKDLDRIDRNILNELQKDGRISNVELSKRVGLSPTPCLERVRRLERQGFIQGYTALLNPHYLDASLLVFVEITLNRGAPDVFEQFNTAVQKLEEIQECHLVSGDFDYLLKTRVPDMSAYRKLLGETLLRLPGVNDTRTYVVMEEVKQSNRLVIKTR
stoichiometry N: 8 and 16
